B1: FIP1L1 (protein, UniProt Q6UN15 1-594, looked up)
Pre-mRNA 3'-end-processing …: MSAGEVERLVSELSGGTGGDEEEEWLYGGPWDVHVHSDLAKDLDENEVERPEEENASANPPSGIEDETAENGVPKPKVTETEDDSDSDSDDDEDDVHVTIGDIKTGAPQYGSYGTAPVNLNIKTGGRVYGTTGTKVKGVDLDAPGSINGVPLLEVDLDSFEDKPWRKPGADLSDYFNYGFNEDTWKAYCEKQKRIRMGLEVIPVTSTTNKITAEDCTMEVTPGAEIQDGRFNLFKVQQGRTGNSEKETALPSTKAEFTSPPSLFKTGLPPSRNSTSSQSQTSTASRKANSSVGKWQDRYGRAESPDLRRLPGAIDVIGQTITISRVEGRRRANENSNIQVLSERSATEVDNNFSKPPPFFPPGAPPTHLPPPPFLPPPPTVSTAPPLIPPPGFPPPPGAPPPSLIPTIESGHSSGYDSRSARAFPYGNVAFPHLPGSAPSWPSLVDTSKQWDYYARREKDRDRERDRDRERDRDRDRERERTRERERERDHSPTPSVFNSDEERYRYREYAERGYERHRASREKEERHRERRHREKEETRHKSSRSNSRRRHESEEGDSHRRHKHKKSKRSKEGKEAGSEPAPEQESTEATPAE
B2: APRT (protein, UniProt P07741 2-180, looked up)
Adenine …: ADSELQLVEQRIRSFPDFPTPGVVFRDISPVLKDPASFRAAIGLLARHLKATHGGRIDYIAGLDSRGFLFGPSLAQELGLGCVLIRKRGKLPGPTLWASYSLEYGKAELEIQKDALEPGQRVVVVDDLLATGGTMNAACELLGRLQAEVLECVSLVELTSLKGREKLAPVPFFSLLQYE
B3: FHOD1 (protein, UniProt Q9Y613 2-1164, looked up)
FH1/FH2 domain-containing …: AGGEDRGDGEPVSVVTVRVQYLEDTDPFACANFPEPRRAPTCSLDGALPLGAQIPAVHRLLGAPLKLEDCALQVSPSGYYLDTELSLEEQREMLEGFYEEISKGRKPTLILRTQLSVRVNAILEKLYSSSGPELRRSLFSLKQIFQEDKDLVPEFVHSEGLSCLIRVGAAADHNYQSYILRALGQLMLFVDGMLGVVAHSDTIQWLYTLCASLSRLVVKTALKLLLVFVEYSENNAPLFIRAVNSVASTTGAPPWANLVSILEEKNGADPELLVYTVTLINKTLAALPDQDSFYDVTDALEQQGMEALVQRHLGTAGTDVDLRTQLVLYENALKLEDGDIEEAPGAGGRRERRKPSSEEGKRSRRSLEGGGCPARAPEPGPTGPASPVGPTSSTGPALLTGPASSPVGPPSGLQASVNLFPTISVAPSADTSSERSIYKARFLENVAAAETEKQVALAQGRAETLAGAMPNEAGGHPDARQLWDSPETAPAARTPQSPAPCVLLRAQRSLAPEPKEPLIPASPKAEPIWELPTRAPRLSIGDLDFSDLGEDEDQDMLNVESVEAGKDIPAPSPPLPLLSGVPPPPPLPPPPPIKGPFPPPPPLPLAAPLPHSVPDSSALPTKRKTVKLFWRELKLAGGHGVSASRFGPCATLWASLDPVSVDTARLEHLFESRAKEVLPSKKAGEGRRTMTTVLDPKRSNAINIGLTTLPPVHVIKAALLNFDEFAVSKDGIEKLLTMMPTEEERQKIEEAQLANPDIPLGPAENFLMTLASIGGLAARLQLWAFKLDYDSMEREIAEPLFDLKVGMEQLVQNATFRCILATLLAVGNFLNGSQSSGFELSYLEKVSEVKDTVRRQSLLHHLCSLVLQTRPESSDLYSEIPALTRCAKVDFEQLTENLGQLERRSRAAEESLRSLAKHELAPALRARLTHFLDQCARRVAMLRIVHRRVCNRFHAFLLYLGYTPQAAREVRIMQFCHTLREFALEYRTCRERVLQQQQKQATYRERNKTRGRMITETEKFSGVAGEAPSNPSVPVAVSSGPGRGDADSHASMKSLLTSRPEDTTHNRRSRGMVQSSSPIMPTVGPSTASPEEPPGSSLPSDTSDEIMDLLVQSVTKSSPRALAARERKRSRGNRKSLRRTLKSGLGDDLVQALGLSKGPGLEV
B4: CPNE3 (protein, UniProt O75131 1-537, looked up)
Copine-3: MAAQCVTKVALNVSCANLLDKDIGSKSDPLCVLFLNTSGQQWYEVERTERIKNCLNPQFSKTFIIDYYFEVVQKLKFGVYDIDNKTIELSDDDFLGECECTLGQIVSSKKLTRPLVMKTGRPAGKGSITISAEEIKDNRVVLFEMEARKLDNKDLFGKSDPYLEFHKQTSDGNWLMVHRTEVVKNNLNPVWRPFKISLNSLCYGDMDKTIKVECYDYDNDGSHDLIGTFQTTMTKLKEASRSSPVEFECINEKKRQKKKSYKNSGVISVKQCEITVECTFLDYIMGGCQLNFTVGVDFTGSNGDPRSPDSLHYISPNGVNEYLTALWSVGLVIQDYDADKMFPAFGFGAQIPPQWQVSHEFPMNFNPSNPYCNGIQGIVEAYRSCLPQIKLYGPTNFSPIINHVARFAAAATQQQTASQYFVLLIITDGVITDLDETRQAIVNASRLPMSIIIVGVGGADFSAMEFLDGDGGSLRSPLGEVAIRDIVQFVPFRQFQNAPKEALAQCVLAEIPQQVVGYFNTYKLLPPKNPATKQQKQ
B5: TPP1 (protein, UniProt O14773 196-563, looked up)
Tripeptidyl-peptidase 1: LHLGVTPSVIRKRYNLTSQDVGSGTSNNSQACAQFLEQYFHDSDLAQFMRLFGGNFAHQASVARVVGQQGRGRAGIEASLDVQYLMSAGANISTWVYSSPGRHEGQEPFLQWLMLLSNESALPHVHTVSYGDDEDSLSSAYIQRVNTELMKAAARGLTLLFASGDSGAGCWSVSGRHQFRPTFPASSPYVTTVGGTSFQEPFLITNEIVDYISGGGFSNVFPRPSYQEEAVTKFLSSSPHLPPSSYFNASGRAYPDVAALSDGYWVVSNRVPIPWVSGTSASTPVFGGILSLINEHRILSGRPPLGFLNPRLYQQHGAGLFDVTRGCHESCLDEEVEGQGFCSGPGWDPVTGWGTPNFPALLKTLLNP
B6: SDCCAG1 (protein, UniProt O60524 1-1076, looked up)
Ribosome quality control …: MKSRFSTIDLRAVLAELNASLLGMRVNNVYDVDNKTYLIRLQKPDFKATLLLESGIRIHTTEFEWPKNMMPSSFAMKCRKHLKSRRLVSAKQLGVDRIVDFQFGSDEAAYHLIIELYDRGNIVLTDYEYVILNILRFRTDEADDVKFAVRERYPLDHARAAEPLLTLERLTEIVASAPKGELLKRVLNPLLPYGPALIEHCLLENGFSGNVKVDEKLETKDIEKVLVSLQKAEDYMKTTSNFSGKGYIIQKREIKPSLEADKPVEDILTYEEFHPFLFSQHSQCPYIEFESFDKAVDEFYSKIEGQKIDLKALQQEKQALKKLDNVRKDHENRLEALQQAQEIDKLKGELIEMNLQIVDRAIQVVRSALANQIDWTEIGLIVKEAQAQGDPVASAIKELKLQTNHVTMLLRNPYLLSEEEDDDVDGDVNVEKNETEPPKGKKKKQKNKQLQKPQKNKPLLVDVDLSLSAYANAKKYYDHKRYAAKKTQKTVEAAEKAFKSAEKKTKQTLKEVQTVTSIQKARKVYWFEKFLWFISSENYLIIGGRDQQQNEIIVKRYLTPGDIYVHADLHGATSCVIKNPTGEPIPPRTLTEAGTMALCYSAAWDARVITSAWWVYHHQVSKTAPTGEYLTTGSFMIRGKKNFLPPSYLMMGFSFLFKVDESCVWRHQGERKVRVQDEDMETLASCTSELISEEMEQLDGGDTSSDEDKEEHETPVEVELMTQVDQEDITLQSGRDELNEELIQEESSEDEGEYEEVRKDQDSVGEMKDEGEETLNYPDTTIDLSHLQPQRSIQKLASKEESSNSSDSKSQSRRHLSAKERREMKKKKLPSDSGDLEALEGKDKEKESTVHIETHQNTSKNVAAVQPMKRGQKSKMKKMKEKYKDQDEEDRELIMKLLGSAGSNKEEKGKKGKKGKTKDEPVKKQPQKPRGGQRVSDNIKKETPFLEVITHELQDFAVDDPHDDKEEQDLDQQGNEENLFDSLTGQPHPEDVLLFAIPICAPYTTMTNYKYKVKLTPGVQKKGKAAKTALNSFMHSKEATAREKDLFRSVKDTDLSRNIPGKVKVSAPNLLNVKRK

What follows are molecules tested on Hsp90 complexes in Mia-PaCa-2 cell extract (assay: Nano-LC-MS/MS of PU-beads pull-downs). Conditions: protein identified in PU-beads pull-down of Mia-PaCa-2 cell extract; QSTAR-Elite QTof MS.
Format: binding, human
Method in brief: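 They came from PU-bead pull-downs of pre-cleared lysates (control beads, overnight, 4 °C), eluted by boiling in 2% SDS, gel-separated and run by data-dependent nano-ESI QTof MS/MS.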

Molecule	Number of Assigned Spectra, Mia-Paca 2
B1	0
B2	6
B3	0
B4	0
B5	1
B6	3

The molecules below were run on Hsp90 complexes in K562 cell extract (assay: Nano-LC-MS/MS of PU-beads pull-downs). Conditions: protein identified in PU-beads pull-down of K562 cell extract, Prep 1; QSTAR-Elite QTof MS.
Format: binding
Method in brief: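 Proteins were identified by data-dependent nano LC-MS/MS (QTof, ESI) and Mascot searching (p<0.05), then reported as spectral counts and coverage via Scaffold. Inputs were PU-bead versus control-bead pull-downs from lysate pre-cleared with control beads overnight at 4 °C, eluted by boiling in 2% SDS.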

Molecule	Number of Assigned Spectra, K562 Prep 1
B1	6
B2	0
B3	5
B4	4
B5	4
B6	2

Same assay, conditions: protein identified in PU-beads pull-down of K562 cell extract, Prep 2; QSTAR-Elite QTof MS

Molecule	Number of Assigned Spectra, K562 Prep 2
B1	3
B2	0
B3	2
B4	5
B5	1
B6	2
